Numbering of substitutions follows the chain as printed. No end group written: not given here.
B1: MM07 (antibody, V domains shown)
VH: QIQLVQSGPELKKPGETVRISCKASGYTLTTAGMQWVQKIPGKGLKWIGWINTHSGVAEFAEDFKGRFAFSLETSANTAYLQIRNLKNEDTATYFCARLGLLGYWGQGTTLTVSS
VL: DILLTQSPAILSVSPGERVSFSCRASQSIGTTIHWYQQRTNGSPRLLIKYASESISGIPSRFSGSGSGTDFTLSINSVESEDIADYYCQQSNSWPWTFGGGTKLEIKR
notes: The VH and VL begin with what look like leader peptides (MDWLW..., MVSSAQ...)
B2: 67-3-67-3 (antibody, V domains shown)
VH: QVQLLESGGGVVQPGRSLRLSCAASGFTFSSYAMHWVRQASGKGLEWVAVISYDGSNKYYADSVKGRFTISRDNSKNTLYLQMNSLRAEDTAVYYCARMDNHGSPDYWGQGTLVTVSS
VL: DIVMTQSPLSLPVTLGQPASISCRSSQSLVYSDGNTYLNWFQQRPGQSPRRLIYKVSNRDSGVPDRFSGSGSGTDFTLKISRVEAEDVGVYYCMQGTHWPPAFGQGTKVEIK
B3: 67-3-67-5 (antibody, V domains shown)
VH: B2 VH
VL: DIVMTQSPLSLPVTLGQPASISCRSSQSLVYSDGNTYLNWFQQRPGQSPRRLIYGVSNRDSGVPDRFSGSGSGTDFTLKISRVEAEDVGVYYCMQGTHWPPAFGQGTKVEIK
B4: 67-9-67-3 (antibody, V domains shown)
VH: B2 VH with N101S, H102G
VL: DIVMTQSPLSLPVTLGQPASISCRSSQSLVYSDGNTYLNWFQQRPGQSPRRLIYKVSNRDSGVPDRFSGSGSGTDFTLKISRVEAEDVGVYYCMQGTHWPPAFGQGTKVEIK
B5: 67-3-67-4 (antibody, V domains shown)
VH: B2 VH
VL: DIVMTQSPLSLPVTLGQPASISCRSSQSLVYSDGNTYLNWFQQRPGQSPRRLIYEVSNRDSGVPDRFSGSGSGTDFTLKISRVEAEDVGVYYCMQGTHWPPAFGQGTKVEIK
B6: MM15 (antibody, IgG2a, V domains shown)
VH: QVQLKESGPGLVAPSQSLSITCTVSGFSLTRYGVSWVRQTPGKGLEWLGIIWGDGSTNYHSALISRLSISKDNSKSQVFLKLNSLQTDDTATYYCAKQERFSDGYYDGFAYWGQGTLVTVSA
VL: QIVLTQSPAIMSASPGEKVTITCSASSSVSYMHWFQQKPGTSPKLWIYSTSNLASGVPARFSGSGSGTSYSLTISRMEAEDAATYYCQQRSSYPFTFGSGTKLEIKR
B7: MM13 (antibody, V domains shown)
VH: EVQLQQSGAELVRSGASVKLSCTASGFNIKDYYMHWMKQRPEQGLEWIGWIDPENGDNEYAPKFQGKATMTADTSSNTAYLQLSSLTSEDTAVYYCNVGGAHYWGQGTTLTVSS
VL: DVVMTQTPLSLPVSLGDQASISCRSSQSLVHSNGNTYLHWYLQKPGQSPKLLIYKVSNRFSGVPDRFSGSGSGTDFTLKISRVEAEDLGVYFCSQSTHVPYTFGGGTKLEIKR
B8: MM08 (antibody, IgG1, V domains shown)
VH: QVQLQQPGAELVRPGASVKLSCKSSDYTFTRYWMNWVKQRPGQGLEWIGMIDPSDSETHHNQMFKDKATLTVDKSSSTAYMQLSSLTSEDSAVYFCARYLGGKEGSFDYWGQGTTLTVSS
VL: DIVLTQSPSSLAVSAGERVTMSCKSSQSLFNSRTRKNYLAWYQQKPGQSPKLLLYWASTRESGVPDRFTGSGSGTDFTLTISSVKTEDLAVYYCKQSYELPWTFGGGTKLEMKR

Assays:
QIEKLVEGKSAIQ = molecular target: T1, QIEKLVEGKSAIQ (not fully specified); assay: ELISA, immobilized peptide QIEKLVEGKSAIQ
T1 construct: alanine at this position
T1 peptide: QIEKLVEGKSAIQ
From the text: (§1) FIG. 20 depicts the value detected by ELISA, i.e., OD₄₅₀ absorbance. […] This experiment is used to determine the precise amino acid epitopes that different monoclonal antibodies bind to, and the relative importance of each amino acid to the binding antibody.

QIEKLVEAKSQIQ = molecular target: T2, QIEKLVEAKSQIQ; assay: ELISA, immobilized peptide QIEKLVEAKSQIQ
T2 construct: member of the group m41; position 504 is glycine in SEMG2 and the sheet prints alanine there
T2 peptide: QIEKLVEAKSQIQ
From the text: as §1

QIEKLVEGASQIQ = molecular target: T3, QIEKLVEGASQIQ (not fully specified); assay: ELISA, immobilized peptide QIEKLVEGASQIQ
T3 construct: member of the group m41; the text speaks of glycine substitution, the sheet prints alanine
T3 peptide: QIEKLVEGASQIQ
From the text: as §1

[1] = molecular target: T4, human SEMG2 full-length protein (human, UniProt Q02383 24-582, limits assumed); assay: ELISA, immobilized antigen SEMG2 (1-582)
T4 construct: also called SEMG2 protein; semenogelin 2
T4 sequence: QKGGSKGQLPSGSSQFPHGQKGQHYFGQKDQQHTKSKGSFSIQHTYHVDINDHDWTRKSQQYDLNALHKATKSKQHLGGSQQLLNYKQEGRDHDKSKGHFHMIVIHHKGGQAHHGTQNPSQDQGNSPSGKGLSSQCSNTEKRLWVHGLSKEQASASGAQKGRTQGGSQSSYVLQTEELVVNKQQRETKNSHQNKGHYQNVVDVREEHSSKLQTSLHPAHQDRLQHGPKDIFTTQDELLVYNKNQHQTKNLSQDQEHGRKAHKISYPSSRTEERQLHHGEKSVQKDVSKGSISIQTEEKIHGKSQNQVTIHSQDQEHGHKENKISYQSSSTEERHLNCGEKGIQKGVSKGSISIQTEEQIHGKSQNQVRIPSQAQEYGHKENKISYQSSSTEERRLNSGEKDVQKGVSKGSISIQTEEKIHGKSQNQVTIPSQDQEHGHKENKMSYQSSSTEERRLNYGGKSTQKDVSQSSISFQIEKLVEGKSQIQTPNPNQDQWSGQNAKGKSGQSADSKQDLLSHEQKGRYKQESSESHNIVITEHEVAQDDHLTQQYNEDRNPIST
From the text: (§2) To clearly distinguish the binding epitopes of blocking antibodies (i.e., antibodies that can inhibit the binding between SEMG2 and CD27) and non-blocking antibodies, a corresponding ELISA analysis method was established. […] Anti-mouse or anti-rabbit secondary antibodies were then used to detect the corresponding bound antibodies.

QIEKLVEGKSQAQ = molecular target: T5, QIEKLVEGKSQAQ (not fully specified); assay: ELISA, immobilized peptide QIEKLVEGKSQAQ
T5 construct: member of the group m41; the text speaks of glycine substitution, the sheet prints alanine
T5 peptide: QIEKLVEGKSQAQ
From the text: as §1

QIEKLVAGKSQIQ = molecular target: T6, QIEKLVAGKSQIQ (not fully specified); assay: ELISA, immobilized peptide QIEKLVAGKSQIQ
T6 construct: member of the group m41; the text speaks of glycine substitution, the sheet prints alanine
T6 peptide: QIEKLVAGKSQIQ
From the text: as §1
To further precisely define the exact epitopes (specific to the level of single amino acid) to which blocking antibodies MM02, MM05, MM07, MM08, MM13, MM14 bind, corresponding ELISA analysis method was established. […] Anti-mouse or anti-rabbit secondary antibodies were then used to detect the corresponding bound antibodies.

QIEKLVEGKSQIA = molecular target: T7, QIEKLVEGKSQIA (not fully specified); assay: ELISA, immobilized peptide QIEKLVEGKSQIA
T7 construct: alanine at this position
T7 peptide: QIEKLVEGKSQIA
From the text: as §1

QIEALVEGKSQIQ = molecular target: T8, QIEALVEGKSQIQ (not fully specified); assay: ELISA, immobilized peptide QIEALVEGKSQIQ
T8 construct: member of the group m41; the text speaks of glycine substitution, the sheet prints alanine
T8 peptide: QIEALVEGKSQIQ
From the text: as §1

[2] = molecular target: T9, SEMG2(497-509) polypeptide QIEKLVEGKSQIQ (human); assay: ELISA, immobilized antigen SEMG2 (497-509)
T9 peptide: QIEKLVEGKSQIQ
From the text: as §2

QIEKAVEGKSQIQ = molecular target: T10, QIEKAVEGKSQIQ (not fully specified); assay: ELISA, immobilized peptide QIEKAVEGKSQIQ
T10 construct: alanine at this position
T10 peptide: QIEKAVEGKSQIQ
From the text: as §1

SEMG2(354-403) fragment = molecular target: T11, SEMG2(354-403) fragment (human); assay: ELISA, immobilized antigen SEMG2 (354-403)
T11 peptide: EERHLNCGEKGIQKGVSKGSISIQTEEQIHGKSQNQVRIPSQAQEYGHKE
From the text: as §2

AIEKLVEGKSQIQ = molecular target: T12, AIEKLVEGKSQIQ (not fully specified); assay: ELISA, immobilized peptide AIEKLVEGKSQIQ
T12 construct: member of the group m41; the text speaks of glycine substitution, the sheet prints alanine
T12 peptide: AIEKLVEGKSQIQ
From the text: as §1

[3] = molecular target: T9, SEMG2(497-509) polypeptide QIEKLVEGKSQIQ; assay: ELISA, immobilized peptide QIEKLVEGKSQIQ
From the text: as §1

QIEKLAEGKSQIQ = molecular target: T13, QIEKLAEGKSQIQ (not fully specified); assay: ELISA, immobilized peptide QIEKLAEGKSQIQ
T13 construct: member of the group m41; the text speaks of glycine substitution, the sheet prints alanine
T13 peptide: QIEKLAEGKSQIQ
From the text: as §1

QAEKLVEGKSQIQ = molecular target: T14, QAEKLVEGKSQIQ (not fully specified); assay: ELISA, immobilized peptide QAEKLVEGKSQIQ
T14 construct: member of the group m41; the text speaks of glycine substitution, the sheet prints alanine
T14 peptide: QAEKLVEGKSQIQ
From the text: as §1

SEMG2(442-453) fragment = molecular target: T15, SEMG2(442-453) fragment (human); assay: ELISA, immobilized antigen SEMG2 (442-453)
T15 peptide: IHGKSQNQVTIP
From the text: as §2

[4] = molecular target: T4, human SEMG2 full-length protein; assay: biolayer interferometry (ForteBio Blitz or Gator)
Method: The equilibrium dissociation constant (KD) of the antibody of the present invention binding to human SEMG2 was determined by biolayer interferometry (ForteBio Bltz or Gator instrument). […] 100 μl of SD buffer, antibody and SEMG2 were added to a 96-well black polystyrene half area microplate, respectively. Select the sensor location based on the sample location layout. KD values were analyzed using molecular interaction analysis software. In the experiments of the assays, the affinity constants of murine monoclonal antibodies and human antibodies H88-67, H88-93 and H88-96 are shown in Table 8, and the affinity and dissociation curves of SEMG2 and corresponding proteins are shown in FIG. 25.

QIAKLVEGKSQIQ = molecular target: T16, QIAKLVEGKSQIQ (not fully specified); assay: ELISA, immobilized peptide QIAKLVEGKSQIQ
T16 construct: member of the group m41; the text speaks of glycine substitution, the sheet prints alanine
T16 peptide: QIAKLVEGKSQIQ

SEMG2(563-574) fragment = molecular target: T17, SEMG2(563-574) fragment (human); assay: ELISA, immobilized antigen SEMG2 (563-574)
T17 peptide: VAQDDHLTQQYN
From the text: as §2

QIEKLVEGKAQIQ = molecular target: T18, QIEKLVEGKAQIQ (not fully specified); assay: ELISA, immobilized peptide QIEKLVEGKAQIQ
T18 construct: alanine at this position
T18 peptide: QIEKLVEGKAQIQ
From the text: as §1

[5] = molecular target: T4, human SEMG2 full-length protein; assay: ELISA on SEMG2; the EC50 table prints no unit, the axis is log (antibody concentration, nM)
[6] = molecular target: T19, BSA-conjugated human SEMG2 (497-509) polypeptide (human, also: coupled to BSA, site not given here); assay: ELISA (FIG. 21B-D)
T19 peptide: QIEKLVEGKSQIQ

[7] = molecular target: T4, human SEMG2 full-length protein; assay: ELISA (FIG. 21B-D)
[8] = molecular target: T4, human SEMG2 full-length protein; assay: ELISA, plate coated with SEMG2 protein, anti-mouse secondary antibody; the EC50 table prints no unit, the axis is log (antibody concentration, nM)

Binder	OD450 absorbance (QIEKLVEGKSAIQ)	OD450 absorbance (QIEKLVEAKSQIQ)	OD450 absorbance (QIEKLVEGASQIQ)	A450 absorbance [1]	OD450 absorbance (QIEKLVEGKSQAQ)	OD450 absorbance (QIEKLVAGKSQIQ)	OD450 absorbance (QIEKLVEGKSQIA)	OD450 absorbance (QIEALVEGKSQIQ)	A450 absorbance [2]	OD450 absorbance (QIEKAVEGKSQIQ)	A450 absorbance (SEMG2(354-403) fragment)	binding result (SEMG2(354-403) fragment)	OD450 absorbance (AIEKLVEGKSQIQ)	OD450 absorbance [3]	OD450 absorbance (QIEKLAEGKSQIQ)	OD450 absorbance (QAEKLVEGKSQIQ)	A450 absorbance (SEMG2(442-453) fragment)	EC50 [5] [nM]	fold higher affinity than the parent antibody (H88-67) [6] [fold]	fold higher affinity than the parent antibody (H88-67) [7] [fold]	further results
B1	1.16	0.58	0.79	1.14	0.509	0.899	1.26	0.822	1.14	0.123	0.001	no binding	0.919	1.19	0.814	0.833	0.011				binding result (SEMG2(442-453) fragment): no binding; Kd [4]: 1.82 nM; OD450 absorbance (QIAKLVEGKSQIQ): 0.48; A450 absorbance (SEMG2(563-574) fragment): 0.012; binding result (SEMG2(563-574) fragment): no binding; OD450 absorbance (QIEKLVEGKAQIQ): 0.296
B2																		0.614	> 10	> 10	
B3																		0.68	> 10	> 10	
B4																		0.272	> 10	> 10	
B5																		0.537	> 10	> 10	
B6																					EC50 [8]: 0.444 nM
B7	1.19	0.842	0.818	1.13	0.699	0.738	1.25	0.712	1.14	0.049	0.001	no binding	0.48	1.23	0.658	0.467	0.008				EC50 [8]: 0.382 nM; binding result (SEMG2(442-453) fragment): no binding; Kd [4]: 0.693 nM; OD450 absorbance (QIAKLVEGKSQIQ): 0.67; A450 absorbance (SEMG2(563-574) fragment): 0.01; binding result (SEMG2(563-574) fragment): no binding; OD450 absorbance (QIEKLVEGKAQIQ): 0.211
B8	1.22	0.824	0.939	1.13	0.798	0.566	1.19	0.789	1.14	0.213	0.012	no binding	0.942	1.26	0.509	0.671	0.008				EC50 [8]: 0.418 nM; binding result (SEMG2(442-453) fragment): no binding; Kd [4]: 2.34 nM; OD450 absorbance (QIAKLVEGKSQIQ): 0.544; A450 absorbance (SEMG2(563-574) fragment): 0.001; binding result (SEMG2(563-574) fragment): no binding; OD450 absorbance (QIEKLVEGKAQIQ): 0.023
